Among the data in patent US20200172626A1 are % of 4-1BB-positive CD8 T cells values, retold here.

The target in the assay is human 4-1BB expressed on cells (human) (UniProt Q07011). Nature of the assay: flow cytometry dot plot (CD8-BV510 against BBK-4-Dylight488) on human CD8+ T cells activated with anti-CD3 for 2 days; antibody at 25 ng/ml, anti-mIgG-Dylight488. In general terms: Flow cytometry measures light scatter and fluorescence of single cells or particles in a stream.
human 4-1BB expressed on cells (human), sequence (Q07011 24-255 limits assumed): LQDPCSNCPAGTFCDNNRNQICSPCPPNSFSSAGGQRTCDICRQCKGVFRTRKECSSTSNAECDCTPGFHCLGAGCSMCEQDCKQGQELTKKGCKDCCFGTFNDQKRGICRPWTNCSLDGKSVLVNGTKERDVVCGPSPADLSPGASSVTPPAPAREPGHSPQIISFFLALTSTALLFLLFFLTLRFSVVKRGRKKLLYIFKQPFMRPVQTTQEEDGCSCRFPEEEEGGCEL

Consider BBK-4 murine anti-human 4-1BB antibody, for which the % of 4-1BB-positive CD8 T cells turned out to be 1.72%.
